According to patent US7262289:

Biological target: KCNQ2+KCNQ3 channel (human KCNQ2 co-expressed with human KCNQ3) (human) (UniProt O43526)
Assay: cell-based or functional assay

Chain of KCNQ2+KCNQ3 channel (human KCNQ2 co-expressed with human KCNQ3) (human) (O43526 other isoform, or with tags, fused parts or gaps, chain 1 of 2): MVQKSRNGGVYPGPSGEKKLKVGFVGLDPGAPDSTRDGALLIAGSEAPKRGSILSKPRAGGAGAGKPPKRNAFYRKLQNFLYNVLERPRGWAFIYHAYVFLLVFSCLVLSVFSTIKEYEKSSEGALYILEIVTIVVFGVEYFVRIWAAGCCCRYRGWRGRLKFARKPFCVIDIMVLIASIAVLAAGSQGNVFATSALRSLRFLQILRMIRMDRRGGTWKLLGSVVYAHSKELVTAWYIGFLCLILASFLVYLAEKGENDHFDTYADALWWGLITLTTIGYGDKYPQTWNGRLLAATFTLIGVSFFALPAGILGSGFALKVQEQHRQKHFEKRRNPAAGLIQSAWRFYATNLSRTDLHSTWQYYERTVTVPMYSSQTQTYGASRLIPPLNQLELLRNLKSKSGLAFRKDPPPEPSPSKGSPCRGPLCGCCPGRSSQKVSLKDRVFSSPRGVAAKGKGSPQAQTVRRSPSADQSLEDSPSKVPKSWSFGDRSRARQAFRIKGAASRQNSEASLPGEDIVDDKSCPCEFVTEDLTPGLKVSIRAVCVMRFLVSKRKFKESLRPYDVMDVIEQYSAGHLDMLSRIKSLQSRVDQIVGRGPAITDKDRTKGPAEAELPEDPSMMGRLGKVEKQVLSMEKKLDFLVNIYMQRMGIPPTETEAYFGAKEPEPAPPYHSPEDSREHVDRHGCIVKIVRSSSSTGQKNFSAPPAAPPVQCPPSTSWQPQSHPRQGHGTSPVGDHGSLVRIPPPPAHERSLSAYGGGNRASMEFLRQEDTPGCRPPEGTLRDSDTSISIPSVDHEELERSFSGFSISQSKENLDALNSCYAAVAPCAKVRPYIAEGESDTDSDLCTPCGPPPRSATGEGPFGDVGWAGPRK
Chain of KCNQ2+KCNQ3 channel (human KCNQ2 co-expressed with human KCNQ3) (human) (O43526 other isoform, or with tags, fused parts or gaps, chain 2 of 2): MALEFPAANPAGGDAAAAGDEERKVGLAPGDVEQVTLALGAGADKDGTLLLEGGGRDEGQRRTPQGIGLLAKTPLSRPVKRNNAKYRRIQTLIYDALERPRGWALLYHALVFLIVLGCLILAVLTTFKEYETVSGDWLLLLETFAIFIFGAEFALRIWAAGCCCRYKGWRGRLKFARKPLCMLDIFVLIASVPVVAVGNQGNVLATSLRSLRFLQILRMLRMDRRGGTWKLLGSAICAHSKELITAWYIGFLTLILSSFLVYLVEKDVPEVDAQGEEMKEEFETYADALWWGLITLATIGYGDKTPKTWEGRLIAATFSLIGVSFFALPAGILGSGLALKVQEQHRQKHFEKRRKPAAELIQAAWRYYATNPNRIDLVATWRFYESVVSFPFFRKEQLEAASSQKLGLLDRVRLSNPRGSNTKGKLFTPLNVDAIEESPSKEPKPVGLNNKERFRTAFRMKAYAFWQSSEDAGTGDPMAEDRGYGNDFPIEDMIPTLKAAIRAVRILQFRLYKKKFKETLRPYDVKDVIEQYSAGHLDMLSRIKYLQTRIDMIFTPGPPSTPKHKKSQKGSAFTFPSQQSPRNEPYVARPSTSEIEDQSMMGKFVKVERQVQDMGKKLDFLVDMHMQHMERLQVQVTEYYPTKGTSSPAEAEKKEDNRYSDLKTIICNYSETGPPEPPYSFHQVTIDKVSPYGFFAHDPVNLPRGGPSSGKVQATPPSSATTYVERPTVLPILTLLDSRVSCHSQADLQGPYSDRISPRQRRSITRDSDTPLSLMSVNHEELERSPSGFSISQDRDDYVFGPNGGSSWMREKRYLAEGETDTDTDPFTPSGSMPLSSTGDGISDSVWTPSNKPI

Substance: KCNE1
- reduction of peak current amplitude at +30 mV in oocytes co-expressing KCNE1: 62%
